Experimental data as given in patent publication US7262274.

Target: human RANK, full length (expressed in or on cells) (human) (UniProt Q9Y6Q6)
Experiment: cell-based or functional assay

Sequence of UniProt Q9Y6Q6 (Q9Y6Q6 30-616 limits assumed): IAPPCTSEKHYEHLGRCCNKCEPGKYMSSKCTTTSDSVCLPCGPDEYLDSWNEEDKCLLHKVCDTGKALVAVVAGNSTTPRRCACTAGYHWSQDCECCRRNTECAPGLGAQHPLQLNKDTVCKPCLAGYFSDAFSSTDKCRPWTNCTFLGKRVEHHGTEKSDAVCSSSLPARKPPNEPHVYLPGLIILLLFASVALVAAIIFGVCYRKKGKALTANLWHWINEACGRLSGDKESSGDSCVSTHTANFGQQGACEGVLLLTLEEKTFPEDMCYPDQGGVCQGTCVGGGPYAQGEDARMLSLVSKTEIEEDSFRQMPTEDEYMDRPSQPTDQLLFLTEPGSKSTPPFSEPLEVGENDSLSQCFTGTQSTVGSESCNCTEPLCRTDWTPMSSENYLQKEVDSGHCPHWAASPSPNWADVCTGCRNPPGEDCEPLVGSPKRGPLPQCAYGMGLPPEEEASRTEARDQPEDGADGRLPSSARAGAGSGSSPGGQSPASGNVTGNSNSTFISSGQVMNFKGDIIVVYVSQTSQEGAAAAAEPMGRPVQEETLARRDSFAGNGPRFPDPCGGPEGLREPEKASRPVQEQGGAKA

How did the allo-stimulatory capacity of CD1a+ DC in a mixed lymphocyte reaction (MLR) turn out when “RANKL (species and construct not stated at the place of use) (ligand)” was run?
Its allo-stimulatory capacity of CD1a+ DC in a mixed lymphocyte reaction (MLR) is greater than 10 fold.
